Measurements published in PMC11742113 (Molecular Biology of the Cell, 2025).

Target: T1, S. aureus FtsZ, full length (Staphylococcus aureus, UniProt P0A031 1-390, FITC label, ~0.7 FITC per FtsZ)
T1 sequence: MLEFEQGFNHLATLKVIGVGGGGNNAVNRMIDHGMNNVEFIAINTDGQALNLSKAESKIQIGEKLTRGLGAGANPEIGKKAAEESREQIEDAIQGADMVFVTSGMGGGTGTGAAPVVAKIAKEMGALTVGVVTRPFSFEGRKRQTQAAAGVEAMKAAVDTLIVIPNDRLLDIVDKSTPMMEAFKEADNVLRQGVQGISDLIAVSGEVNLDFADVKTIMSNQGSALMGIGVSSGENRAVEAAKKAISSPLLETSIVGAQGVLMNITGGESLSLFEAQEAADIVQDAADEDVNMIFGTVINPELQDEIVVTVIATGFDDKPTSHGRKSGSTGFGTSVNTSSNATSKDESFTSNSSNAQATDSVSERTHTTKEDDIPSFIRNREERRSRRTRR
Test: other fluorescence titration

B1: S. aureus GpsB (natural protein)
chain: MSDVSLKLSAKDIYEKDFEKTMARGYRREEVDAFLDDIIADYQKMADMNNEVVKLSEENHKLKKELEELRLRVATSRPQDNKSFSSNNTTTNTSSNNVDILKRISNLEKAVFGK
With B1 as the binder, how does the Kd read?
The Kd was 53.8 ± 8 µM.
